Patent US20260209365A1, “ANTI-COMMON GAMMA CHAIN PROTEINS AND COMPOSITIONS OF MATTER” (SINOMAB BIOSCIENCE LIMITED, priority 2023, published 2026)

What was measured:
[1] = system: γc proteins from chimpanzee; experiment: ELISA binding of full-length antibodies to chimpanzee γc; parameters: species or system chimpanzee (Pan troglodytes); conditions: humanized antibodies with back-mutation
Experimental: (§1) Selected clones of full-length antibodies were evaluated by ELISA to access the binding specificity. The binding activities of full-length anti-γc antibody were investigated using γc proteins (extracellular domain) from human (SEQ ID NO: 205-206), cynomolgus (Sequence ID: XP_005593949.1, SEQ ID NO: 207-208) and chimpanzee (Sequence ID: XP_008971810.1, SEQ ID NO: 209-210) either purchased from Sino Biological or in-house generated.
(§2) Humanized antibodies with back-mutation (hSM-05A and hSM-05E) were tested in the following assays. Binding affinities were investigated in the ELISA assays.

[2] = system: Jurkat T cells; experiment: IL-9 rescue of ceramide induced Jurkat cell death, WST-8; assay type: cell-based, human; conditions: ceramide 50 μM; IL-9 50 ng/ml; three days
Experimental: Jurkat T cells were pretreated with anti-γc antibodies or ritlecitinib before the application of anti-tumor ceramide (50 μM) and IL-9 (50 ng/ml) for three days. To evaluate cell survival, 10 μl WST-8 reagent was added to each well and incubated for 4 hours before spectrophotometer measurement.

[3] = system: native γc proteins from common marmoset; experiment: Binding to native common marmoset γc on transfected HEK-293 cells, flow cytometry; assay type: cell-based; conditions: FITC-labelled antibody 33 nM (5 μg/ml)
Experimental: (§3) The binding specificities of humanized anti-γc antibodies to native γc proteins were further evaluated by […] binding assay. In brief, human HEK-293 cells were transfected with plasmid expressing full length γc protein from human, rhesus, cynomolgus or common marmoset. Two days later, transfected cells or non-transfected controls were incubated with FITC-conjugated hSM-05A on ice for an hour before analysis by flow cytometry.

[4] = system: T cells; experiment: Mixed lymphocyte reaction (MLR) in human PBMC; assay type: cell-based; conditions: CFSE, flow cytometry
Experimental: To provide hints at effects of humanized antibodies to target GvHD, MLR assay was developed in our PBMC system (FIG. 29A). In brief, total T cells were isolated from PBMC of donor 1 while T cells were depleted from PBMC of donor 2. T cells from donor 1 were activated with a cocktail of anti-CD3 and anti-CD28 antibodies in the presence of IL-2. Simultaneously, T cells were incubated with humanized antibodies or ritlecitinib together with inducing agents. After 3 days, T cells were labelled with CFSE before co-culture with T-cell depleted culture from donor 2 for 6 days. Proliferating T cells were identified as CFSE low or CSFE negative population in flow cytometry.

[5] = system: IL-4 induced p-STAT6; experiment: Suppression of p-STAT in PBMC, IL-4; assay type: cell-based, human; conditions: antibody 10 μg/ml, compared to isotype control
Text: PBMC isolated from healthy individuals (iXCells Biotechnologies, San Diego, USA) is chosen as the primary immune cell culture to conclude the efficacies of anti-γc antibodies in the primary cells. As STAT phosphorylation could be triggered by the treatment of all six γc cytokines (except IL-9) in the PBMC culture (FIG. 12A-B), inhibition of p-STAT could be used as an indicator to confirm the efficacies of anti-γc antibodies.
(§4) Given numbers refer to the percentage of inhibition compared to isotype control stimulated with respective γc cytokine. Antibody concentration is 10 μg/ml.

[6] = target: T1, mouse γc (Mus musculus, UniProt P34902); experiment: BLI binding kinetics to mouse γc protein
T1 construct: 6×His (C)
T1 sequence (P34902 with tags, fused parts or gaps): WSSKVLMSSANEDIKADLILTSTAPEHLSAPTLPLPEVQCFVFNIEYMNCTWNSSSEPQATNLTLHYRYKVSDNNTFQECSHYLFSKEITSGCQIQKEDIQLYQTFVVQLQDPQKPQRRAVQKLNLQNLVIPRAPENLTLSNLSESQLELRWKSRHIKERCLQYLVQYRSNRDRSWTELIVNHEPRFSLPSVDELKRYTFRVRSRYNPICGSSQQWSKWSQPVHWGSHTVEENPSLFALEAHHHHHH

[7] = system: cynomolgus γc; experiment: BLI binding kinetics to cynomolgus γc protein; parameters: species or system cynomolgus (Macaca fascicularis)
[8] = target: T2, γc proteins from human (Homo sapiens, UniProt P31785); experiment: ELISA binding of full-length antibodies to human γc; conditions: humanized antibodies with back-mutation
T2 construct: extracellular domain of human γc protein (amino acids: 1-262); host or cells: Expi-CHO (e.g.)
T2 sequence (P31785 23-262): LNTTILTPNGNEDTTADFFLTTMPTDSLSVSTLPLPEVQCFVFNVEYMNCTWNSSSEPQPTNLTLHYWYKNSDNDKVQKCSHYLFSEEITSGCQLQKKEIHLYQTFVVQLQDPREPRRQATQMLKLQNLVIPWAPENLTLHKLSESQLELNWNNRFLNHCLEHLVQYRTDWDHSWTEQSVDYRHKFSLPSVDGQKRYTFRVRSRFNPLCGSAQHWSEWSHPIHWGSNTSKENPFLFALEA
Experimental: as §1, §2

[9] = target: T3, native γc proteins from human (Homo sapiens, UniProt P31785); experiment: Binding to native human γc on transfected HEK-293 cells, flow cytometry; assay type: cell-based; conditions: FITC-labelled antibody 33 nM (5 μg/ml)
T3 construct: transfected with plasmid expressing full length γc protein from human; expressed in transfected cells; host or cells: HEK-293
T3 sequence (P31785 23-369): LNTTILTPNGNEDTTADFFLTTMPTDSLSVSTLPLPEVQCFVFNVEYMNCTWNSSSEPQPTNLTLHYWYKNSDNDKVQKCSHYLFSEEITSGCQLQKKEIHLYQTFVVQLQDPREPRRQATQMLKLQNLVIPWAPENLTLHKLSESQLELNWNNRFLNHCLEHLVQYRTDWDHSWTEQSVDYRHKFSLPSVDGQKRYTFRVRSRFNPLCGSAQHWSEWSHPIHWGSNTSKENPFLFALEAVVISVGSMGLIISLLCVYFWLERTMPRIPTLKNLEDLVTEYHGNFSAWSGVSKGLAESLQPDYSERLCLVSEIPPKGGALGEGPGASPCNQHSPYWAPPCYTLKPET
Experimental: as §3

[10] = system: IL-7 induced p-STAT5; experiment: Suppression of p-STAT in PBMC, IL-7; assay type: cell-based, human; conditions: antibody 10 μg/ml, compared to isotype control
Experimental: as §4

[11] = system: IL-9 induced ERK phosphorylation; experiment: Western blot of IL-9 induced ERK phosphorylation in Jurkat T cells; assay type: cell-based, human; conditions: humanized antibodies; 33 nM (5 μg/ml)
[12] = system: rat γc; experiment: BLI binding kinetics to rat γc protein
Chain of rat γc (as listed by the source): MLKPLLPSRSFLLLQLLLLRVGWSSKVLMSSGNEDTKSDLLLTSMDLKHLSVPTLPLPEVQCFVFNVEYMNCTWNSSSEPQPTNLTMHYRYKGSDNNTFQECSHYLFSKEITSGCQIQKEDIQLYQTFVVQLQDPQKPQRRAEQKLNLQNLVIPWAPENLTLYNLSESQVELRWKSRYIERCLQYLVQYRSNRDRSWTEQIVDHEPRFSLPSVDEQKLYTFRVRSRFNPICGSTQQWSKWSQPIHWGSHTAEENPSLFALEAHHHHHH

Chain of cynomolgus γc (as listed by the source): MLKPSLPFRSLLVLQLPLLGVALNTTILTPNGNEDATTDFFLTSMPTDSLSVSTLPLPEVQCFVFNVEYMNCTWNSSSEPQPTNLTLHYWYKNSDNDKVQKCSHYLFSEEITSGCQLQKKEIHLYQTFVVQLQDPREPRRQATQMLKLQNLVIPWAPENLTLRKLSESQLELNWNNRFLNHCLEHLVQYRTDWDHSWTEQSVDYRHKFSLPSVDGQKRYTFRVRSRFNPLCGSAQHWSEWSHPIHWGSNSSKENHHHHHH
Chain of γc proteins from chimpanzee (as listed by the source): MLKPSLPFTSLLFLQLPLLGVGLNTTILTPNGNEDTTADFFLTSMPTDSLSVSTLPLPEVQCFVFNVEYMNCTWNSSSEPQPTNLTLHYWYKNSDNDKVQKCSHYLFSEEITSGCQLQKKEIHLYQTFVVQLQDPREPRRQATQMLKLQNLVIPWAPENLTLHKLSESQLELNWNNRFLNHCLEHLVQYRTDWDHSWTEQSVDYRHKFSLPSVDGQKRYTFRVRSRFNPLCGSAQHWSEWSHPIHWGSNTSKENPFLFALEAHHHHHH
Chain of native γc proteins from common marmoset (as listed by the source): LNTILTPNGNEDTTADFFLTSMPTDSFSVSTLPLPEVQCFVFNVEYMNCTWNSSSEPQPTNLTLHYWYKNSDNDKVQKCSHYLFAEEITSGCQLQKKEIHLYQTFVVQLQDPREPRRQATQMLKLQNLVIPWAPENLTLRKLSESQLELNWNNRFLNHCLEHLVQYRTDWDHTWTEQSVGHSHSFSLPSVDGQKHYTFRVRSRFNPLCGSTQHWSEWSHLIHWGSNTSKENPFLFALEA

| Ka [6] | Kdis [6] | Ka [7] | Kdis [7] | Ka [12] | Kdis [12] | Molecule | ELISA binding to chimpanzee γc [1] | suppression of IL-9 rescue of ceramide induced Jurkat cell death [2] | binding to native common marmoset γc on HEK-293 [3] | inhibition of MLR induced expansion of cytotoxic T cells [4] | suppression of MLR induced expansion of T helper cells [4] | IL-4 induced p-STAT6, percentage of inhibition [5] | ELISA binding to human γc [8] | binding to native human γc on HEK-293 [9] | IL-7 induced p-STAT5, percentage of inhibition [10] | suppression of IL-9 induced ERK phosphorylation [11] |
| --- | --- | --- | --- | --- | --- | --- | --- | --- | --- | --- | --- | --- | --- | --- | --- | --- |
| 6580 M⁻¹ s⁻¹ | 0.000712 s⁻¹ | 22500 M⁻¹ s⁻¹ | 0.00683 s⁻¹ |  |  | hSM-05A: full-length humanized anti-γc antibody derived from SM-05A by framework patching (antibody, V domains shown) VH: QVQLVQSGAEVLKPGASVKVSCKASGYTFTEYTMHWVKQARGQRLEWIGGIDPYNGGATYNQRFKGKATLTTDTSTSTAYMELRNLRSDDTAVYYCARRRLYYGNALDYWGQGTLVTVSS VL: DIVMTQSPLSLPVTPGEQASISCRSSQSLVHSNGNTYLHWYLQKPGQSPQLLIYKVSSRFSGVPDRFSGSGSGTDFTLKISRVEAEDVGVYFCSQTTHVPFTFGSGTKLEIKR | retained the binding affinity and specificity | could suppress the IL-9 effect | could bind to the native γc proteins from humans and common marmoset | could significantly inhibit | the suppression was milder to T helper cells | 17.18% | retained the binding affinity and specificity | could bind to the native γc proteins from humans and common marmoset | 94.17% | better suppression to IL-9 induced ERK phosphorylation than hSM-05E |
| 340000 M⁻¹ s⁻¹ | 0.0252 s⁻¹ | 22500 M⁻¹ s⁻¹ | 0.00683 s⁻¹ | 71000 M⁻¹ s⁻¹ | 0.00208 s⁻¹ | hSM-05E: full-length humanized anti-γc antibody derived from SM-05E by framework patching (antibody, V domains shown) VH: QVQLVQSGAEVLKPGASVKVSCKASGYTFTEYTMHWVKQARGQRLEWIGGIDPNTGGVTYNQKFKGKATLTTDTSTSTAYMELRNLRSDDTAVYYCARRRRYYGYALDYWGQGTLVTVSS VL: DIVMTQSPLSLPVTPGEQASISCRSSQSIVHSNGNTYLEWYLQKPGQSPQLLIYKVSNRFSGVPDRFSGSGSGTDFTLKISRVEAEDVGVYFCSQSTHVPFMFGSGTKLEIKR | retained the binding affinity and specificity |  |  | could significantly inhibit | the suppression was milder to T helper cells | 21.74% | retained the binding affinity and specificity |  | 66.02% |  |
